Laboratory results from publication PMC12248025 (bioRxiv, 2025).
Several values for one entry are separate records, joined by “and”; a condition that tells them apart may be missing. Equal values may be shown once.

Target: the molecule itself
Assay: cryo-EM structure

B1: human IMPDH2 S160del (hIMPDH2-S160del) (enzyme)
chain: not shown
Q: With B1 as the protein, how does the “stoichiometry N” value read?
A: 4 and 8
